Measurements published in the supplement of paper PMC10567573.

B1: AUP1 (parent)
chain: FCASTRLPPTPLLLFPEEEATNGR
B2: ZNF649 (parent)
chain: LVAHQRYHTGKTPFVCPECGQPCS

Variants of: B1
Assay: protein stability index of a GFP-peptide fusion (GPS, HEK-293T) (PSI 1-6); higher = more stable
Conditions: c terminus: a fixed tail appended
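Further: lentivirally expressed fusions sorted by FACS into six bins by GFP to DsRed ratio, PSI derived from sequencing read proportions per bin multiplied by bin number.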

Row | Variant | protein stability index
1 | L12V | 3.31
2 | L12R | 3.12
3 | L12K | 3.6
4 | L12G | 2.87
5 | L12C | 2.95
6 | L12D | 3.72
7 | L12S | 3.47
8 | L12F | 3.16
9 | L12H | 2.87
10 | L12I | 2.58
11 | L12W | 2.77
12 | L12E | 4.1
13 | L12Q | 3.7
14 | L13F | 2.18
15 | L13H | 3.4
16 | L13K | 2.74
17 | L13E | 3.86
18 | L13T | 3.56
19 | L13M | 3.15
20 | L13V | 3.25
21 | L13I | 2.77
22 | L13S | 3.54
23 | L13C | 3.01
24 | L13Q | 3.32
25 | L13A | 3.43

Row | Variant | protein stability index
26 | T21G | 2.68
27 | T21C | 3.05
28 | T21N | 3.15
29 | T21D | 3.35
30 | T21E | 3.68
31 | T21W | 2.15
32 | T21M | 2.46
33 | T21R | 2.8
34 | T21A | 2.6
35 | T21H | 2.69
36 | T21K | 3.09
37 | F15K | 3.11
38 | F15R | 3.37
39 | F15G | 3.24
40 | F15L | 3.44
41 | F15D | 3.62
42 | F15W | 2.68
43 | F15H | 3.34
44 | F15M | 3.12
45 | F15A | 2.93
46 | A3T | 2.84
47 | A3D | 3.33
48 | A3S | 2.44
49 | A3C | 2.78
50 | A3W | 1.89

Row | Variant | protein stability index
51 | A3L | 3.27
52 | A3Y | 1.7
53 | A3R | 2.23
54 | A3F | 2.45
55 | A3V | 2.76
56 | F1K | 4.17
57 | F1C | 2.6
58 | F1D | 4.35
59 | F1V | 4.27
60 | F1G | 4.27
61 | F1E | 4.65
62 | F1R | 4.24
63 | F1N | 4.16
64 | F1W | 3.74
65 | F1L | 3.9
66 | F1Q | 4.54
67 | F1I | 4.27
68 | F1S | 4.3
69 | P9D | 2.74
70 | P9A | 2.59
71 | P9F | 1.58
72 | P9T | 2.46
73 | P9S | 2.82
74 | P9L | 2.11
75 | P9Q | 2.62

Row | Variant | protein stability index
76 | P9E | 2.89
77 | P9W | 2.97
78 | P9I | 2.43
79 | P9V | 2.62
80 | P9M | 1.84
81 | S4D | 3.6
82 | S4Q | 3.36
83 | S4M | 2.59
84 | S4E | 3.52
85 | S4W | 3.38
86 | S4V | 3.08
87 | S4C | 2.54
88 | S4H | 3.05
89 | S4F | 2.54
90 | S4R | 3.03
91 | S4K | 3.01
92 | S4T | 2.76
93 | C2H | 2.17
94 | C2Y | 3.31
95 | C2E | 4.91
96 | C2A | 3.42
97 | C2T | 3.42
98 | C2M | 3.73
99 | C2L | 3.39
100 | C2N | 3.82

Row | Variant | protein stability index
101 | C2W | 2.76
102 | P8E | 2.91
103 | P8F | 2.43
104 | P8K | 2.09
105 | P8C | 2.08
106 | P8H | 2.33
107 | P8D | 2.92
108 | P8Y | 1.9
109 | P8W | 2.27
110 | P8G | 2.66
111 | L7W | 1.51
112 | L7M | 3
113 | L7K | 2.89
114 | N22E | 3.39
115 | N22V | 2.16
116 | N22L | 2.19
117 | N22Y | 2.82
118 | N22I | 2.11
119 | N22T | 3.27
120 | N22S | 2.5
121 | L14I | 3
122 | L14A | 3.58
123 | L14H | 3.49
124 | L14F | 2.14
125 | L14D | 4.01

Row | Variant | protein stability index
126 | L14S | 3.44
127 | L14C | 2.4
128 | E18M | 1.94
129 | E18V | 2.21
130 | E18K | 2.32
131 | E18C | 2.18
132 | E18W | 1.73
133 | E18F | 1.82
134 | E18P | 2.15
135 | E18H | 2.15
136 | E18G | 2.54
137 | P11L | 1.63
138 | P11W | 2.14
139 | P11G | 2.54
140 | P11V | 2.8
141 | P11K | 2.39
142 | P11C | 2.57
143 | P11Q | 2.58
144 | P11I | 2.04
145 | P11H | 2.33
146 | P11N | 2.83
147 | P11Y | 1.91
148 | T10R | 2.87
149 | T10S | 2.8
150 | T10W | 2.33

Row | Variant | protein stability index
151 | T10F | 1.32
152 | T10N | 2.92
153 | T10C | 2.33
154 | T10L | 2.23
155 | T10G | 2.53
156 | T10E | 3.23
157 | T10K | 3.04
158 | T10H | 1.68
159 | T10D | 2.84
160 | R6G | 2.7
161 | R6N | 3.5
162 | R6L | 2.73
163 | R6W | 2.12
164 | R6C | 2.7
165 | R6D | 3.9
166 | R6S | 3.29
167 | R6I | 2.46
168 | R6F | 2.2
169 | R6H | 3.25
170 | E17W | 1.7
171 | E17Q | 2.28
172 | E17D | 2.7
173 | E17S | 1.8
174 | E17N | 2.55
175 | E17L | 1.5

Row | Variant | protein stability index
176 | E17T | 1.62
177 | E17A | 1.96
178 | E17R | 1.96
179 | G23I | 2.19
180 | G23S | 2.94
181 | G23F | 2
182 | G23N | 2.97
183 | G23Y | 2.32
184 | G23H | 2.82
185 | G23L | 2.67
186 | G23W | 1.69
187 | G23V | 2.91
188 | G23Q | 3.09
189 | G23K | 2.62
190 | G23C | 2.65
191 | A20I | 2.3
192 | A20P | 2.75
193 | A20W | 2.15
194 | A20D | 3.12
195 | A20H | 2.81
196 | A20R | 2.77
197 | A20L | 2.72
198 | A20V | 2.7
199 | A20Y | 2.48
200 | A20K | 2.93

Row | Variant | protein stability index
201 | A20E | 3.51
202 | A20Q | 2.96
203 | A20C | 2.38
204 | P16Q | 2.6
205 | P16I | 1.62
206 | P16W | 2.48
207 | P16S | 2.4
208 | P16C | 2.08
209 | P16G | 2.69
210 | P16D | 3.05
211 | P16M | 2.15
212 | P16L | 1.57
213 | T5I | 2.22
214 | T5P | 3.16
215 | T5C | 1.86
216 | T5E | 3.77
217 | T5M | 2.96
218 | T5N | 3.05
219 | T5G | 2.7
220 | T5F | 1.81
221 | T5S | 2.64
222 | E19V | 2.33
223 | E19H | 2.23
224 | E19T | 2.68
225 | E19A | 2.74

Row | Variant | protein stability index
226 | E19M | 2.08
227 | E19G | 2.29
228 | E19S | 2.31
229 | E19L | 2.19
230 | E19W | 1.87
231 | E19D | 2.68
232 | E19C | 2.04
233 | R24Q | 2.98
234 | R24P | 3
235 | R24Y | 1.88
236 | R24G | 3.69
237 | R24D | 3.3
238 | R24M | 2.38
239 | R24T | 3.24
240 | R24W | 1.34
241 | R24I | 2.46
242 | R24H | 2.76
243 | R24V | 2.85

Variants of: B2
Assay: as above
Conditions: c terminus: a fixed tail appended

Row | Variant | protein stability index
244 | V15G | 3.03
245 | V15D | 3.83
246 | V15L | 3.2
247 | V15F | 2.76
248 | V15W | 2.67
249 | Y7L | 2.93
250 | Y7D | 4.17
251 | Y7A | 3.83
252 | Y7K | 3.31
253 | P17M | 2.77
254 | P17N | 3.48
255 | P17W | 2.37
256 | R6V | 2.98
257 | R6T | 3.48
258 | R6L | 2.93
259 | F14A | 3.94
260 | F14E | 4.44
261 | F14S | 3.93
262 | G10N | 3.37
263 | G10E | 3.57
264 | H8A | 3.1
265 | H8R | 2.53
266 | H8Q | 3.59

Row | Variant | protein stability index
267 | H8T | 3.26
268 | H8E | 3.13
269 | C16S | 3.16
270 | C16W | 1.86
271 | S24P | 3.57
272 | S24K | 3.23
273 | S24V | 3.13
274 | S24G | 3.54
275 | S24W | 3.08
276 | S24D | 3.76
277 | K11D | 3.45
278 | K11F | 2.81
279 | V2C | 4.4
280 | V2L | 3.09
281 | V2W | 2.57
282 | Q21F | 2.21
283 | Q21P | 2.9
284 | Q21D | 3.67
285 | P13M | 3.27
286 | P13K | 3.36
287 | P13Q | 3.32
288 | L1V | 3.35
289 | L1W | 2.46

Row | Variant | protein stability index
290 | L1C | 4.67
291 | L1H | 3.48
292 | L1P | 4.28
293 | T9W | 2.9
294 | T9C | 2.65
295 | C19H | 2.92
296 | C19Q | 2.92
297 | C19I | 2.58
298 | C19A | 2.89
299 | C19M | 2.58
300 | C19F | 2.06
301 | C19V | 2.42
302 | E18Y | 2.27
303 | E18A | 2.99
304 | E18M | 2.58
305 | C23K | 3.12
306 | C23F | 2.49
307 | C23N | 3.06
308 | C23E | 3.09
309 | Q5A | 3.22
310 | Q5S | 3.14
311 | Q5D | 3.74
312 | H4L | 1.81

Row | Variant | protein stability index
313 | H4A | 3.02
314 | H4V | 2.97
315 | H4K | 2.49
316 | H4D | 3.98
317 | P22E | 3.75
318 | P22D | 3.69
319 | P22Y | 3.84
320 | P22I | 3.25
321 | P22L | 3.13
322 | P22M | 2.9
323 | P22W | 2.38
324 | A3N | 2.71
325 | A3Y | 2.38
326 | A3E | 4.14
327 | A3D | 4.3
328 | A3R | 3.14
329 | A3K | 3.41
330 | T12F | 2.77
331 | G20V | 2.47
332 | G20Y | 2.52
333 | G20D | 3.48
334 | G20I | 2.27
